Substitutions are numbered along the chain they refer to.
Key:
[1] = molecular target: T1, PriB wild type (Neisseria gonorrhoeae FA1090, UniProt Q5F924 1-100); experiment: fluorescence anisotropy
T1 sequence: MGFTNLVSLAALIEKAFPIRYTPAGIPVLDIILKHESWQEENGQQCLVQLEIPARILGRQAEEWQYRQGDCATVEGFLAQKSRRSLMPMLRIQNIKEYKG

[2] = molecular target: T2, PriB E41A (Neisseria gonorrhoeae FA1090, UniProt Q5F924 1-100, E41A); experiment: fluorescence anisotropy
T2 sequence: T1 sequence with E41A

[3] = molecular target: T3, PriB Y21A (Neisseria gonorrhoeae FA1090, UniProt Q5F924 1-100, Y21A); experiment: fluorescence anisotropy
T3 sequence: T1 sequence with Y21A

[4] = molecular target: the molecule itself; experiment: crystal structure
[5] = molecular target: T4, His-tagged Neisseria gonorrhoeae PriA (Neisseria gonorrhoeae, UniProt Q5F6V8 1-729); experiment: pull-down
T4 sequence (looked up): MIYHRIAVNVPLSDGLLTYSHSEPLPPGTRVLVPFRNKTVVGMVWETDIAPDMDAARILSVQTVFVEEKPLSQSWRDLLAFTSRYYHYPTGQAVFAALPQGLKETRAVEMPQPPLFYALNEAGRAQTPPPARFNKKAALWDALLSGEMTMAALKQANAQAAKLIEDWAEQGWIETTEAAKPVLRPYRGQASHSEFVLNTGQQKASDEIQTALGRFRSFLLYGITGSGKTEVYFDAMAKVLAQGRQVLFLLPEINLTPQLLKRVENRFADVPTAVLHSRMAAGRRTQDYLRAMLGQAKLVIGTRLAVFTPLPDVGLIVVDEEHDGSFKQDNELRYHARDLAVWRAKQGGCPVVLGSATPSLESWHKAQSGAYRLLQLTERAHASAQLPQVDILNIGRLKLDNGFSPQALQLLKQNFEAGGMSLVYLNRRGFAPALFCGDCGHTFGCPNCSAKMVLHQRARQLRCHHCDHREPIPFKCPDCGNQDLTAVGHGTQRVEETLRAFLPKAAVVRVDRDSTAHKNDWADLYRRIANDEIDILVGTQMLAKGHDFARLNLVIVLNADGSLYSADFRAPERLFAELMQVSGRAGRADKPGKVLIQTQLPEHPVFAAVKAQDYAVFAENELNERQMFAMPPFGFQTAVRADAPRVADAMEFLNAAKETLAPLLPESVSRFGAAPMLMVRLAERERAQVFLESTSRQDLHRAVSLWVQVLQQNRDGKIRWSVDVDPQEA

[6] = molecular target: T5, Neisseria gonorrhoeae PriA (Neisseria gonorrhoeae, UniProt Q5F6V8 1-729); experiment: fluorescence polarisation
T5 sequence: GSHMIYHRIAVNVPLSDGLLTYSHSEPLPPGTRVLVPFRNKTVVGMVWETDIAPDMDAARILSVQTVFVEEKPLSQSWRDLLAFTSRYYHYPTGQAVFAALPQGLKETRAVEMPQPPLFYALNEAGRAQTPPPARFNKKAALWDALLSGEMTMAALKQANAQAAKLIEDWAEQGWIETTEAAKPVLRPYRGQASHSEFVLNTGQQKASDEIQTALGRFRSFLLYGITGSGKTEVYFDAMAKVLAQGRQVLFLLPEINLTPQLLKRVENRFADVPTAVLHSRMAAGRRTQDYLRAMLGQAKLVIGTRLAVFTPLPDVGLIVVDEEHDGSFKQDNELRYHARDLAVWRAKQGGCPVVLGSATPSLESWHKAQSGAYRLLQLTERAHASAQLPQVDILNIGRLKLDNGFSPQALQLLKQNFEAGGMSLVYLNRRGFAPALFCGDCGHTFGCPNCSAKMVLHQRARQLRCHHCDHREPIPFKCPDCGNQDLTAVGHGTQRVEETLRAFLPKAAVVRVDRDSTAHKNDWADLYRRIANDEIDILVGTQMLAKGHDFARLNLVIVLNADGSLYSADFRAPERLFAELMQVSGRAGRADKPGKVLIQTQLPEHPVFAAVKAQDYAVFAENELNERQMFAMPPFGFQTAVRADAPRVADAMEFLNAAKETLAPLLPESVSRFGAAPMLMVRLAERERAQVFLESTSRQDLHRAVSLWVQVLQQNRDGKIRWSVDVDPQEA

## GCCGTGATCACCAATGCAGATTGACGAACCTTTGCTCCAGTAACC (ssDNA) [45-base fluoro-ssDNA]
[1]
  Kd: 1020 ± 34 nM

## GCCGTGATCACCAATGCAGATTGACGAACCTTTGCC (ssDNA) [36-base fluoro-ssDNA]
[1]
  Kd: 475 ± 20 nM
[2]
  Kd: 139 ± 26 nM
[3]
  Kd: 641 ± 41 nM

## AAGCACAATTACCCACGC (ssDNA) [18-base fluoro-ssDNA]
[1]
  Kd: 662 ± 37 nM

B1: Neisseria gonorrhoeae PriB (natural protein)
chain: GSHMGFTNLVSLAALIEKAFPIRYTPAGIPVLDIILKHESWQEENGQQCLVQLEIPARILGRQAEEWQYRQGDCATVEGFLAQKSRRSLMPMLRIQNIKEYKG
[4]
  stoichiometry N: 2
[5]
  binding result: binds

B2: FITC-labeled Neisseria gonorrhoeae PriB (natural protein)
chain: B1 chain
modifications: FITC (fluorescein isothiocyanate) label, 0.34 FITC per PriB dimer; labeled residue not stated
[6]
  Kd: 137 nM
